From US20070243198A1 (ERA BIOTECH S A, published 2007)
Values belong to the molecule of their own block, whether it stands above or below them.

Key:
[1] = target: human EGF receptor on MDA-MB231 breast cancer cells (human) (UniProt P00533); test: cell-based or functional assay
[2] = target: T1, hGH binding protein provided by the kit (Active Bioactive Human Growth Hormone ELISA DSL-10-11100, Diagnostic … (UniProt P10912 19-256)); test: bioactivity ELISA based on binding to the kit's hGH binding protein (DSL-10-11100)
T1 sequence (looked up): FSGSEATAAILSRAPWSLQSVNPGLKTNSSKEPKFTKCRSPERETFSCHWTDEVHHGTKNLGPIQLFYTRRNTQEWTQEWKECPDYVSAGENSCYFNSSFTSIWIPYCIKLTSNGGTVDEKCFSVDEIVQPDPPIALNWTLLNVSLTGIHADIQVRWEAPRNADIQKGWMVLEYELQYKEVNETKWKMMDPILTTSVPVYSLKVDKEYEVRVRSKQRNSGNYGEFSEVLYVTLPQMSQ

- % proliferation with respect to Deprived cells (Mean), radioactive thymidine incorporation, 1.2 ng/mL [1]: 146%
Molecule: RX3-EGF fusion protein

- binding result [2]: no binding
B1: RX3 protein without a fusion partner (other)
chain: THTSGGCGCQPPPPVHLPPPVHLPPPVHLPPPVHLPPPVHLPPPVHLPPPVHVPPPVHLPPPPCHYPTQPPRPQPHPQPHPCPCQQPHPSPCQY
notes: also called control RX3 RPBLA preparations; isolated RX3 protein
